Values quoted from earlier work in patent US7468440B2, “Malonamides and malonamide derivatives as modulators of chemokine receptor activity” (Bristol-Myers Squibb Company, priority 2003, dated 2008).

System: MCP-1 expression
Conditions: human multiple sclerosis, effective therapy

B1: interferon b-1b: interferon b-1b, effective therapy in human multiple sclerosis (protein, UniProt P01574 22-187, looked up, variant C17S)
Interferon beta: MSYNLLGFLQRSSNFQSQKLLWQLNGRLEYCLKDRMNFDIPEEIKQLQQFQKEDAALTIYEMLQNIFAIFRQDSSSTGWNETIVENLLANVYHQINHLKTVLEEKLEKEDFTRGKLMSSLHLKRYYGRILHYLKAKEYSHCAWTIVRVEILRNFYFINRLTGYLRN
modifications: interferon beta-1b
For B1, the “effect on MCP-1 expression in peripheral blood mononuclear cells” value is listed as “reduces MCP-1 expression”.
